Data set [1] has as its system HeLa Kyoto. The data set is described as follows: solubility change mitosis vs G1/S (difference of NP-40 vs SDS log2 ratios) (log2 ratio difference); higher = more soluble in mitosis.
Data set [2] has as its system HeLa Kyoto. Kind of data set: thermal stability score vs G1/S (z-score of summed log2 fold changes over temperatures); higher = more thermally stable than in G1/S.
Data set [3] deals with HeLa Kyoto. The data set is described as follows: melting temperature (median over replicates), in situ; higher = more thermally stable.
For data set [4], the system named is HeLa Kyoto. Kind of data set: solubility in G1/S (NP-40 vs SDS abundance) (log2 ratio); higher = more soluble. The note with it: cell cycle stage: G1/S.
Setting [5] is: cell cycle stage: early G1 (4.5 h after nocodazole release).
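Wherever melting temperature (median over replicates), in situ is given: HeLa Kyoto cells synchronized by double thymidine or nocodazole block, proteins quantified by TMT10plex mass spectrometry, three independent biological replicates.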
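Wherever solubility change mitosis vs G1/S (difference of NP-40 vs SDS log2 ratios) is given: synchronized HeLa Kyoto cells (double thymidine block for G1/S, nocodazole release for mitosis), protein amounts in NP-40 versus SDS lysates quantified by mass spectrometry, three biological replicates.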
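Wherever solubility in G1/S (NP-40 vs SDS abundance) is given: HeLa Kyoto cells arrested at G1/S by double thymidine block, proteins quantified by TMT10plex mass spectrometry in mild NP-40 versus SDS extracts, three biological replicates.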
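Wherever thermal stability score vs G1/S (z-score of summed log2 fold changes over temperatures) is given: synchronized HeLa Kyoto cells, proteins quantified by TMT10plex mass spectrometry, three biological replicates, mitosis taken 0.5 h after nocodazole release, G1/S directly after double thymidine block.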

“MSNVSEERRKRQQNIKEGLQFIQSPLSYPGTQEQYAVYLRALVRNLFNEGNDVYREHDWNNSISQYTEALNIADYAKSEEILIPKEIIEKLYINRIACYSNMGFHDKVLEDCNIVLSLNASNCKALYRKSKALSDLGRYKKAYDAVAKCSLAVPQDEHVIKLTQELAQKLGFKIRKAYVRAELSLKSVPGDGATKALNHSVEDIEPDLLTPRQEAVPVVSLPAPSFSHEVGSELASVPVMPLTSILPLQVEESALPSAVLANGGKMPFTMPEAFLDDGDMVLGDELDDLLDSAPETNETVMPSALVRGPLQTASVSPSMPFSASLLGTLPIGARYAPPPSFSEFYPPLTSSLEDFCSSLNSFSMSESKRDLSTSTSREGTPLNNSNSSLLLMNGPGSLFASENFLGISSQPRNDFGNFFGSAVTKPSSSVTPRHPLEGTHELRQACQICFVKSGPKLMDFTYHANIDHKCKKDILIGRIKNVEDKSWKKIRPRPTKTNYEGPYYICKDVAAEEECRYSGHCTFAYCQEEIDVWTLERKGAFSREAFFGGNGKINLTVFKLLQEHLGEFIFLCEKCFDHKPRMISKRNKDNSTACSHPVTKHEFEDNKCLVHILRETTVKYSKIRSFHGQCQLDLCRHEVRYGCLREDECFYAHSLVELKVWIMQNETGISHDAIAQESKRYWQNLEANVPGAQVLGNQIMPGFLNMKIKFVCAQCLRNGQVIEPDKNRKYCSAKARHSWTKDRRAMRVMSIERKKWMNIRPLPTKKQMPLQFDLCNHIASGKKCQYVGNCSFAHSPEEREVWTYMKENGIQDMEQFYELWLKSQKNEKSEDIASQSNKENGKQIHMPTDYAEVTVDFHCWMCGKNCNSEKQWQGHISSEKHKEKVFHTEDDQYCWQHRFPTGYFSICDRYMNGTCPEGNSCKFAHGNAELHEWEERRDALKMKLNKARKDHLIGPNDNDFGKYSFLFKDLN [ZC3H7A]”: the “solubility change mitosis (log2)” value in data set [1] was determined as 0.169. Further, the thermal stability score in data set [2] (setting [5]) turned out to be 0.548; in data set [2] (cell cycle stage: mitosis), 2.36. Besides, the figures for the melting temperature in data set [3] (cell cycle stage: G1/S) and in data set [3] (cell cycle stage: mitosis) were 48.5 °C and 47.7 °C, respectively. Also, in data set [4], the “solubility in G1/S (log2)” value is -0.49.

With “MSPTISHKDSSRQRRPGNFSHSLDMKSGPLPPGGWDDSHLDSAGREGDREALLGDTGTGDFLKAPQSFRAELSSILLLLFLYVLQGIPLGLAGSIPLILQSKNVSYTDQAFFSFVFWPFSLKLLWAPLVDAVYVKNFGRRKSWLVPTQYILGLFMIYLSTQVDRLLGNTDDRTPDVIALTVAFFLFEFLAATQDIAVDGWALTMLSRENVGYASTCNSVGQTAGYFLGNVLFLALESADFCNKYLRFQPQPRGIVTLSDFLFFWGTVFLITTTLVALLKKENEVSVVKEETQGITDTYKLLFAIIKMPAVLTFCLLILTAKIGFSAADAVTGLKLVEEGVPKEHLALLAVPMVPLQIILPLIISKYTAGPQPLNTFYKAMPYRLLLGLEYALLVWWTPKVEHQGGFPIYYYIVVLLSYALHQVTVYSMYVSIMAFNAKVSDPLIGGTYMTLLNTVSNLGGNWPSTVALWLVDPLTVKECVGASNQNCRTPDAVELCKKLGGSCVTALDGYYVESIICVFIGFGWWFFLGPKFKKLQDEGSSSWKCKRNN [SLC33A1]”, in data set [1], the “solubility change mitosis (log2)” value was -0.141. The thermal stability score in data set [2] (setting [5]) is -1.24; in data set [2] (cell cycle stage: mitosis), -1.12. For the same sequence, the figures for the melting temperature in data set [3] (cell cycle stage: G1/S) and in data set [3] (cell cycle stage: mitosis) were 58.5 °C and 57.9 °C, respectively. In addition, the “solubility in G1/S (log2)” value in data set [4] is -0.0645.

As for “MSQSGAVSCCPGATNGSLGRSDGVAKMSPKDLFEQRKKYSNSNVIMHETSQYHVQHLATFIMDKSEAITSVDDAIRKLVQLSSKEKIWTQEMLLQVNDQSLRLLDIESQEELEDFPLPTVQRSQTVLNQLRYPSVLLLVCQDSEQSKPDVHFFHCDEVEAELVHEDIESALADCRLGKKMRPQTLKGHQEKIRQRQSILPPPQGPAPIPFQHRGGDSPEAKNRVGPQVPLSEPGFRRRESQEEPRAVLAQKIEKETQILNCALDDIEWFVARLQKAAEAFKQLNQRKKGKKKGKKAPAEGVLTLRARPPSEGEFIDCFQKIKLAINLLAKLQKHIQNPSAAELVHFLFGPLDLIVNTCSGPDIARSVSCPLLSRDAVDFLRGHLVPKEMSLWESLGESWMRPRSEWPREPQVPLYVPKFHSGWEPPVDVLQEAPWEVEGLASAPIEEVSPVSRQSIRNSQKHSPTSEPTPPGDALPPVSSPHTHRGYQPTPAMAKYVKILYDFTARNANELSVLKDEVLEVLEDGRQWWKLRSRSGQAGYVPCNILGEARPEDAGAPFEQAGQKYWGPASPTHKLPPSFPGNKDELMQHMDEVNDELIRKISNIRAQPQRHFRVERSQPVSQPLTYESGPDEVRAWLEAKAFSPRIVENLGILTGPQLFSLNKEELKKVCGEEGVRVYSQLTMQKAFLEKQQSGSELEELMNKFHSMNQRRGEDS [EPS8L2]”, the “solubility change mitosis (log2)” value in data set [1] is -0.0548. For the same sequence, the thermal stability score stood at 0.00646 in data set [2] (setting [5]) and 0.475 in data set [2] (cell cycle stage: mitosis). Also, the melting temperature came to 50.4 °C in data set [3] (cell cycle stage: G1/S) and 50.1 °C in data set [3] (cell cycle stage: mitosis). For the same sequence, the “solubility in G1/S (log2)” value in data set [4] is 0.468.

As for “MSRDRFRSRGGGGGGFHRRGGGGGRGGLHDFRSPPPGMGLNQNRGPMGPGPGQSGPKPPIPPPPPHQQQQQPPPQQPPPQQPPPHQPPPHPQPHQQQQPPPPPQDSSKPVVAQGPGPAPGVGSAPPASSSAPPATPPTSGAPPGSGPGPTPTPPPAVTSAPPGAPPPTPPSSGVPTTPPQAGGPPPPPAAVPGPGPGPKQGPGPGGPKGGKMPGGPKPGGGPGLSTPGGHPKPPHRGGGEPRGGRQHHPPYHQQHHQGPPPGGPGGRSEEKISDSEGFKANLSLLRRPGEKTYTQRCRLFVGNLPADITEDEFKRLFAKYGEPGEVFINKGKGFGFIKLESRALAEIAKAELDDTPMRGRQLRVRFATHAAALSVRNLSPYVSNELLEEAFSQFGPIERAVVIVDDRGRSTGKGIVEFASKPAARKAFERCSEGVFLLTTTPRPVIVEPLEQLDDEDGLPEKLAQKNPMYQKERETPPRFAQHGTFEYEYSQRWKSLDEMEKQQREQVEKNMKDAKDKLESEMEDAYHEHQANLLRQDLMRRQEELRRMEELHNQEMQKRKEMQLRQEEERRRREEEMMIRQREMEEQMRRQREESYSRMGYMDPRERDMRMGGGGAMNMGDPYGSGGQKFPPLGGGGGIGYEANPGVPPATMSGSMMGSDMRTERFGQGGAGPVGGQGPRGMGPGTPAGYGRGREEYEGPNKKPRF [SFPQ]”, in data set [1], the “solubility change mitosis (log2)” value came out at 0.67. Besides, the thermal stability score in data set [2] (setting [5]) amounted to 4.77; in data set [2] (cell cycle stage: mitosis), 7.88. For the same sequence, the melting temperature amounted to 47.7 °C in data set [3] (cell cycle stage: G1/S) and 48.9 °C in data set [3] (cell cycle stage: mitosis). For the same sequence, in data set [4], the “solubility in G1/S (log2)” value was -0.264.

The values are drawn from the supplement of paper PMC5998384.
